B1: 3D8 VL protein (light-chain variable domain of anti-DNA antibody 3D8) (other)
VL: DIVMSQSPSSLAVSAGEKVTMSCKSSQSLFNSRTRKNYLAWYQQKPGQSPKLLIYWASTRESGVPDRFTGSGPGTDFTLTISSVQAEDLAVYYCKQSYYHMYTFGSGTKLEIKRAD
notes: Isolated single VL domain of mouse (MRL-lpr/lpr) IgG2a/kappa antibody 3D8; It was expressed in E. coli from vector pIg20L-3D8 VL and purified on IgG-sepharose; This domain was immobilized on the CM5 chip in the SPR assay
B2: 3D8 VH protein (heavy-chain variable domain of anti-DNA antibody 3D8) (other)
VH: EVQLQQSGPELVKPGASVKMSCKASGYTFTSYVMHWVKQKPGQGLEWIGYINPYNDGTKYNEKFKGKATLTSDKSSSTAYMELSSLTSEDSAVYYCARGAYKRGYAMDYWGQGTSVTVSS
notes: Isolated single VH domain of mouse (MRL-lpr/lpr) IgG2a/kappa antibody 3D8; It was expressed in E. coli from vector pIg20H-3D8 VH and purified on IgG-sepharose

Target: the molecule itself
Assay: size exclusion chromatography (HPLC, TSK G3000SWXL), phosphate buffer pH 7.4; self-association
Description: 0.02 ml of a protein (conc. 5-20 μM) was injected into a TSK G3000SWXL column (TosoHaas, Japan) and a phosphate buffer solution (50 mM sodium phosphate/150 mM NaCl, pH 7.4) was flowed therein at a flow rate of 0.7 ml/min and the chromatogram of the proteins was obtained from the absorbance at 280 nm.

| Protein | binding result |
| --- | --- |
| B1 | no binding (tested: 5-20 µM) |
| B2 | no binding (tested: 5-20 µM) |
